Data: the RNAGym collection of RNA variant scans (doi:10.7554/elife.80360)

B1: Hairpin Ribozyme (parent)
chain: GUCCUCUUUCACGUGCGCGUGAAAGAGAGAAGUGAACCAGAGAAACACACGUUGUGGUAUAUUACCUGGUA

Variants of: B1
Assay: self-cleavage, relative activity (ratio to wild type); higher = more cleavage; co-transcriptional

Variant	self-cleavage
GUCCUCUUUAACGUGCGCGUGAAAGAGAGAAGUGAACCAGAGAAUCACACGUUGUGGUAUAUUACCUGGUA	0.121
GUCCUCUUUAACGUGCGCGUGAAAGAGAGAAGUGAACCAGAGAACCACACGUUGUGGUAUAUUACCUGGUA	0.111
GUCCUCUUUGACGUGCGCGUGACAGAGAGAAGUGAACCAGAGAAACACACGUUGUGGUAUAUUACCUGGUA	0.416
GUCCUCUUUAACGUGCGCGUGAAACAGAGAAGUGAACCAGAGAAACACACGUUGUGGUAUAUUACCUGGUA	0.227
GUCCUCUUUAACGUGCGCGUGAAAAAGAGAAGUGAACCAGAGAAACACACGUUGUGGUAUAUUACCUGGUA	0.187
GUCCUCUUUAACGUGCGCGUGAAAUAGAGAAGUGAACCAGAGAAACACACGUUGUGGUAUAUUACCUGGUA	0.356
GUCCUCUUUAACGUACGCGUGAAAGAGAGAAGUGAACCAGAGAAACACACGUUGUGGUAUAUUACCUGGUA	0.773
GUCCUCUUUAACGUCCGCGUGAAAGAGAGAAGUGAACCAGAGAAACACACGUUGUGGUAUAUUACCUGGUA	0.755
GUCCUCUUUAACGUGCGCGUGAAAGAGAGAAGUGAACCAGAGAAACACACGUUGUGGUAUAUUACUUGGUA	0.312
GUCCUCUUUAACGUGCGCGUGAAAGAGAGAAGUGAACCAGAGAAACACACGUUGUGGUAUAUUACAUGGUA	0.283
GUCCUCUUUAACGUGCGCGUGAAAGAGAGAAGUGAACCAGAGAAACACACGUUGUGGUAUAUUACGUGGUA	0.158
GUCCUCUUUAACGUGCGCGUGAAAGAGAGAAGUUAACCAGAGAAACACACGUUGUGGUAUAUUACCUGGUA	1.01
GUCCUCUUUAACGUGCGCGUGAAAGAGAGAAGUAAACCAGAGAAACACACGUUGUGGUAUAUUACCUGGUA	0.92
GUCCUCUUUGUCGUGCGCGUGAAAGAGAGAAGUGAACCAGAGAAACACACGUUGUGGUAUAUUACCUGGUA	0.358
GUCCUCUUUGCCGUGCGCGUGAAAGAGAGAAGUGAACCAGAGAAACACACGUUGUGGUAUAUUACCUGGUA	0.799
GUCCUCUUUAACGUGCGCUUGAAAGAGAGAAGUGAACCAGAGAAACACACGUUGUGGUAUAUUACCUGGUA	0.59
GUCCUCUUUGACGUGCGCGUGAAAGGGAGAAGUGAACCAGAGAAACACACGUUGUGGUAUAUUACCUGGUA	0.776
GUCCUCUUUGACGUGCGCGUGAAAGCGAGAAGUGAACCAGAGAAACACACGUUGUGGUAUAUUACCUGGUA	0.383
GUCCUCUUUGACGUGCGCGUGAAAGUGAGAAGUGAACCAGAGAAACACACGUUGUGGUAUAUUACCUGGUA	0.352
GUCCUCUUUAACGUGCGCGUGAAAGAGAGAAGUGAACCAGAGAAACACACGUUGUGGUAUAUUGCCUGGUA	0.397
GUCCUCUUUAACGUGCGCGUGAAAGAGAGAAGUGAACCAGAGAAACACACGUUGUUGUAUAUUACCUGGUA	0.148
GUCCUCUUUAACGUGCGCGUGAAAGAGAGAAGUGAACCAGAGAAACACACGUUGUGAUAUAUUACCUGGUA	0.162
GUCCUCUUUAAAGUGCGCGUGAAAGAGAGAAGUGAACCAGAGAAACACACGUUGUGGUAUAUUACCUGGUA	0.476
GUCCUCUUUAACGUGCGCGUGAUAGAGAGAAGUGAACCAGAGAAACACACGUUGUGGUAUAUUACCUGGUA	0.666
GUCCUCUUUAACGUGCGCGUGAGAGAGAGAAGUGAACCAGAGAAACACACGUUGUGGUAUAUUACCUGGUA	0.6
GUCCUCUUUAACGUGCGCGUGAAAGAGAGAAGUGAACCAGAGAGACACACGUUGUGGUAUAUUACCUGGUA	0.178

Variant	self-cleavage
GUCCUCUUUAACGUGCGCGUGAAAGAGAGAAGUGAACCACAGAAACACACGUUGUGGUAUAUUACCUGGUA	0.158
GUCCUCUUUAACGUGCGCGUGAAAGAGAGAAGUGCACCAGAGAAACACACGUUGUGGUAUAUUACCUGGUA	0.846
GUCCUCUUUAACGUGCGCGUGAAAGAGAGAAGUGAACCAGAGAAACACACGUUGGGGUAUAUUACCUGGUA	0.303
GUCCUCUUUAACGUGCGCGUGAAAGAGAGAAGUGAACCAGAGAAACACACGUUGCGGUAUAUUACCUGGUA	0.248
GUCCUCUUUAACGUGCGCGUGAAAGAGAGAAGUGAACCAGAGAAACACACGUUGUGGUAUACUACCUGGUA	0.241
GUCCUCUUUAACGUGCGCGUGAAAGAGAGAAGUGAACCAGAGAAACACACGUUGUGGUAUAGUACCUGGUA	0.162
GUCCUCUUGCACGUGCGCGUGAAAGAGAGAAGUGAACCAGAGAAACACACGUUGUGGUAUAUUACCUGGGA	0.539
GUCCUCUUUAACGUGCGCGUGUAAGAGAGAAGUGAACCAGAGAAACACACGUUGUGGUAUAUUACCUGGUA	0.632
GUCCUCUUUAACGUGCGCGUGGAAGAGAGAAGUGAACCAGAGAAACACACGUUGUGGUAUAUUACCUGGUA	0.607
GUCCUCUUUAACGUGCGCGUGAAAGACAGAAGUGAACCAGAGAAACACACGUUGUGGUAUAUUACCUGGUA	0.159
GUCCUCUUUACCGUGCGCGUGAAAGAGAGAAGUGAACCAGAGAAACACACGUUGUGGUAUAUUACCUGGUA	0.624
GUCCUCUUUAGCGUGCGCGUGAAAGAGAGAAGUGAACCAGAGAAACACACGUUGUGGUAUAUUACCUGGUA	0.644
GUCCUCUUUAACGUGCGCGUGAAAGAGAAAAGUGAACCAGAGAAACACACGUUGUGGUAUAUUACCUGGUA	0.111
GUCCUCUUUAACGUGCGCGUCAAAGAGAGAAGUGAACCAGAGAAACACACGUUGUGGUAUAUUACCUGGUA	0.67
GUCCUCUUUAACGUGCGCGUAAAAGAGAGAAGUGAACCAGAGAAACACACGUUGUGGUAUAUUACCUGGUA	0.856
GUCCUCUUUAACGUGCGCGUGAAAGAGAGGAGUGAACCAGAGAAACACACGUUGUGGUAUAUUACCUGGUA	0.131
GUCCUCUUUAACGUGCGCGUGAAAGAGAGCAGUGAACCAGAGAAACACACGUUGUGGUAUAUUACCUGGUA	0.122
GUCCUCUUUAACGUGCGCGUGAAAGAGAGUAGUGAACCAGAGAAACACACGUUGUGGUAUAUUACCUGGUA	0.156
GUCCUCUUUAACGUGCGCGUGAAAGAGAGAAGUGAACCAGAGAAACACACCUUGUGGUAUAUUACCUGGUA	0.566
GUCCUCUUUAACGUGCGCGUGAAAGAGAGAAGUGAACCAGAGAAACACACGUUGUGGAAUAUUACCUGGUA	0.485
GUCCUCUUUAACGUGCGCGUGAAAGAGAGAAGUGAACCAGAGAAACACACGUUGUGGUACAUUACCUGGUA	0.579
GUCCUCUUUAACGUGCGCGUGAAAGAGAGAAGUGAACCAGAGAAACACACGUUGUGGUAAAUUACCUGGUA	0.64
GUCCUCUUUAACGUGCGCGUGAAAGAGAGAAGUGAACCAGAGAAACACACGUUGUGGUAGAUUACCUGGUA	0.377
GUCCUCUUUAACGUGCGCGUGAAAGAGAGAAGUGAACCAGAGAAAGACACGUUGUGGUAUAUUACCUGGUA	0.1
GUCCUCUUUAACGUGCGCGUGAAAGAGAGAAGUGAACCAGAGAAAUACACGUUGUGGUAUAUUACCUGGUA	0.2
GUCCUCUUUAACGUGCGCGUGAAAGAGAGAAGUGAACCAGAGAAAAACACGUUGUGGUAUAUUACCUGGUA	0.109

Variant	self-cleavage
GUCCUCUUUAACGGGCGCGUGAAAGAGAGAAGUGAACCAGAGAAACACACGUUGUGGUAUAUUACCUGGUA	0.632
GUCCUCUUUAACGAGCGCGUGAAAGAGAGAAGUGAACCAGAGAAACACACGUUGUGGUAUAUUACCUGGUA	0.661
GUCCUCUUUAACGUGCGCGUGAAAGAGAGAAGUGAACCAGAGAAACACACGGUGUGGUAUAUUACCUGGUA	0.731
GUCCUCUUUAACGUGCGCGUGAAAGAGAGAAGUGAACCAGAGAAACACACGUUGUGGUAUAUUACCUAGUA	0.177
GUCCUCUUUAACGUGCGCGUGAAAGAGAGAACUGAACCAGAGAAACACACGUUGUGGUAUAUUACCUGGUA	0.0945
GUCCUCUUUAACGUGCGCGUGAAAGAGAGAAUUGAACCAGAGAAACACACGUUGUGGUAUAUUACCUGGUA	0.156
GUCCUCUUUAACGUGCGCGUGAAAGAGAGAAGUGAACCAGAGAAACACGCGUUGUGGUAUAUUACCUGGUA	0.357
GUCCUCUUUAACGUGCGCGUGAAAGAGAGAAGUGAACCAGAGAAACACACGUUCUGGUAUAUUACCUGGUA	0.355
GUCCUCUUUGACGUGCGCGUGCAAGAGAGAAGUGAACCAGAGAAACACACGUUGUGGUAUAUUACCUGGUA	0.597
GUCCUCUUUAACGUGCGCGUGAAAGAGAGAAGUGAACCAGAGAAACACACGUUGUGGUAUGUUACCUGGUA	0.183
GUCCUCUUUAACGUGCGCGUGAAAGAGAGAAGUGAACUAGAGAAACACACGUUGUGGUAUAUUACCUGGUA	0.425
GUCCUCUUUAACGUGCGCGUGAAAGAGAGAAGUGAACCAGUGAAACACACGUUGUGGUAUAUUACCUGGUA	1.04
GUCCUCUUUAACGUGCGCGUGAAAGAGAGAAGUGAACCAGCGAAACACACGUUGUGGUAUAUUACCUGGUA	0.752
GUCCUCUUUAACGUGCGCGUGAAAGAGAGACGUGAACCAGAGAAACACACGUUGUGGUAUAUUACCUGGUA	0.09
GUCCUCUUUAACGUGCGCGUGAAAGAGAGAAGUGAGCCAGAGAAACACACGUUGUGGUAUAUUACCUGGUA	0.856
GUCCUCUUUAACGUGCGCGUGAAAGAGAGAAGUGAUCCAGAGAAACACACGUUGUGGUAUAUUACCUGGUA	0.43
GUCCUCUUUAACGUGCGCGUGAAAGAGAGAAGUGAACCAGAGAAACACACGUUGUGGUAUAUUACCUGGCA	0.616
GUCCUCUUUAACGUGCGCGUGAAAGAGAGAAGUGAACCAGAGAAACACACGUUGUGGUAUAUUACCUGGGA	0.767
GUCCUCUUUAACGUGCGCGAGAAAGAGAGAAGUGAACCAGAGAAACACACGUUGUGGUAUAUUACCUGGUA	0.781
GUCCUCUUUAACGUGCGCGUGAAAGAGAGAAGAGAACCAGAGAAACACACGUUGUGGUAUAUUACCUGGUA	0.153
GUCCUCUUUAACGUGCGCGUGAAAGAGAGAAGUGAACCAGAGAAACGCACGUUGUGGUAUAUUACCUGGUA	0.2
GUCCUCUUUAACGUGCUCGUGAAAGAGAGAAGUGAACCAGAGAAACACACGUUGUGGUAUAUUACCUGGUA	0.681
GUCCUCUUUAACGUGCGCGUGAAAGAGAGAAGUGAACCAGAAAAACACACGUUGUGGUAUAUUACCUGGUA	0.149
GUCCUCUUUAACGUGCGCGUGAACGAGAGAAGUGAACCAGAGAAACACACGUUGUGGUAUAUUACCUGGUA	0.598
